Measured values reported in US20230133118A1 (ADAGENE, published 2023).

Assays:
[1] = target: T1, human CD137 (human, UniProt Q07011 24-186); experiment: surface plasmon resonance (SPR); format not described
T1 construct: also called CD137 receptor; 4-1BB

[2] = target: cynomolgus monkey CD137 (cynomolgus monkey, UniProt A9YYE7 24-254); experiment: cell-based or functional assay
[3] = target: T2, mouse CD137 (mouse, UniProt P20334 24-187, limits assumed); experiment: cell-based or functional assay
T2 sequence (looked up): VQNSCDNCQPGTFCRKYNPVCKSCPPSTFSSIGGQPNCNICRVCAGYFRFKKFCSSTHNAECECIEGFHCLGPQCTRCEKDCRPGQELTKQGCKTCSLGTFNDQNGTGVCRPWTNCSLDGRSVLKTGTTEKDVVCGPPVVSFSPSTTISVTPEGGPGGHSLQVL

[4] = target: T3, rat CD137 (rat); experiment: not described; the reference is not named in the sentence (monkey and human CD137 in the sentences before)
T3 construct: It was recombinantly expressed in reporter cells for the NFkB assay; also called rodent CD137 receptors (rat)

[5] = target: T2, mouse CD137; experiment: as above

Sequence of cynomolgus monkey CD137 (A9YYE7 entry or part of it): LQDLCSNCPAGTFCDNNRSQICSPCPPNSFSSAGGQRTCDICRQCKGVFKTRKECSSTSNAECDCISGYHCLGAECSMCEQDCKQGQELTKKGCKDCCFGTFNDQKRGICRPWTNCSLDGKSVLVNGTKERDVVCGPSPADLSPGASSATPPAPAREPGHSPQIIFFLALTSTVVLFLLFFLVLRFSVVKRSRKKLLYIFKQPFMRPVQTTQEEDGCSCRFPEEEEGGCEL
T1 sequence (Q07011 24-186 limits assumed): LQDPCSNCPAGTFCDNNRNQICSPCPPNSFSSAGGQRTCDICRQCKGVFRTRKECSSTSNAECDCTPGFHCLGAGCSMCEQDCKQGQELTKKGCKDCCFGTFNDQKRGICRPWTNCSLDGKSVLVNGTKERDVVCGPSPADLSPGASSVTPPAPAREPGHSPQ

B1: ADG106 (antibody, human IgG4 S228P, kappa, V domains shown)
VH: EVQLVESGGGLVQPGGSLRLSCAASGFSLSTGGVGVGWIRQAPGKGLEWLALIDWADDKYYSPSLKSRLTISRDNSKNTLYLQLNSLRAEDTAVYYCARGGSDTVIGDWFAYWGQGTLVTVSS
VL: DIQLTQSPSSLSASVGDRVTITCRASQSIGSYLAWYQQKPGKAPKLLIYDASNLETGVPSRFSGSGSGTDFTLTISSLQPEDFATYYCQQGYYLWTFGQGTKVEIKR
notes: also called anti-CD137 antibody ADG106; fully human agonistic anti-CD137 monoclonal IgG4 antibody
Kd [1]: 3.7 nM
EC50 (read off the curve) (NFkB reporter, 293T cells expressing monkey CD137) [2]: ~0.3 µg/mL
EC50 (read off the curve) (NFkB reporter, 293T cells expressing mouse CD137) [3]: ~0.4 µg/mL
fold lower affinity [4]: > 100 fold
fold lower affinity [5]: > 100 fold
